Where only a bound is given, the exact number is not on record here.

Experiment [1] deals with T1, Human CD3ε stalk-Fc(knob)-Avi/CD3δ stalk-Fc(hole) (human).
T1 construct: Heterodimeric Fc fusion; also called human CD3ε/δ; Human CD3 epsilon stalk-Fc(knob)-Avi
In words: SPR, TCB format, monovalent binding. On the procedure: The experimental setup is schematically depicted in FIG. 3.
The dissociation was monitored for 800 s.
(§1) Kinetic constants were derived using the Biacore T200 Evaluation Software (GE Healthcare Life Sciences), to fit rate equations for 1:1 Langmuir binding by numerical integration. The half-life (t_{1/2}) of the interaction was calculated using the formula t_{1/2}=ln 2/koff.
(In general: SPR reads the build-up and loss of mass on a sensor chip optically.)

The target in experiment [2] is T1, Human CD3ε stalk-Fc(knob)-Avi/CD3δ …. In words: SPR, biotinylated human CD3ε/δ on SA chip, TCB at 2 µg/ml; response normalised to anti-huIgG capture and referenced to the unstressed sample; after 2 weeks at pH 6.0/40 °C. On the procedure: (§2) In order to assess the effect of the deamidation site removal and its effect on the stability of the antibodies, the optimized anti-CD3 antibodies (in TCB format) were incubated for 14 days at 37° C., pH 7.4 and at 40° C., pH 6 and further analyzed by SPR for their binding capability to human CD3ε/δ. Samples stored at −80° C. pH 6 were used as reference. The reference samples and the samples stressed at 40° C. were in 20 mM His, 140 mM NaCl, pH 6.0, and the samples stressed at 37° C. in PBS, pH 7.4, all at a concentration of 1.0 mg/ml. After the stress period (14 days) samples in PBS were dialyzed back to 20 mM His, 140 mM NaCl, pH 6.0 for further analysis.
(§3) All SPR experiments were performed on a Biacore T200 instrument (GE Healthcare) at 25° C. with HBS-P+ (10 mM HEPES, 150 mM NaCl pH 7.4, 0.05% Surfactant P20) as running and dilution buffer. Biotinylated human CD3ε/δ (see Example 3, SEQ ID NOs 41 and 42) as well as biotinylated anti-huIgG (Capture Select, Thermo Scientific, #7103262100) were immobilized on a Series S Sensor Chip SA (GE Healthcare, #29104992), resulting in surface densities of at least 1000 resonance units (RU). Anti-CD3 antibodies with a concentration of 2 μg/ml were injected for 30 s at a flow rate of 5 μl/min, and dissociation was monitored for 120 s. The surface was regenerated by injecting 10 mM glycine pH 1.5 for 60 s. Bulk refractive index differences were corrected by subtracting blank injections and by subtracting the response obtained from a blank control flow cell. For evaluation, the binding response 5 seconds after injection end was taken. To normalize the binding signal, the CD3 binding was divided by the anti-huIgG response (the signal (RU) obtained upon capture of the CD3 antibody on the immobilized anti-huIgG antibody). The relative binding activity was calculated by referencing each temperature stressed sample to the corresponding, non-stressed sample.

For experiment [3] the target is unchanged. Briefly: SPR, biotinylated human CD3ε/δ on SA chip, TCB at 2 µg/ml; response normalised to anti-huIgG capture and referenced to the unstressed sample; after 2 weeks at pH 7.4/37 °C. The procedure:
as §2, §3

For experiment [4] the target is unchanged. Briefly: SPR, biotinylated human CD3ε/δ on SA chip, monovalent IgG; response normalised to anti-huIgG capture and referenced to the unstressed sample; after 2 weeks at pH 6.0/40 °C. On the procedure: as §3
For experiment [5] the target is unchanged. In words: SPR, biotinylated human CD3ε/δ on SA chip, monovalent IgG; response normalised to anti-huIgG capture and referenced to the unstressed sample; after 2 weeks at pH 7.4/37 °C. On the procedure: as §3
Experiment [6] has the same target. In words: SPR, Biacore T200, 25 °C; monovalent IgG captured by anti-PG antibody on C1 chip, CD3ε/δ-Fc as analyte; triplicates; footnote: values may not be fully reliable, bad fit quality. The procedure: as §1
(§4) To analyze the interaction to CD3, IgG molecules were captured for 240 s at 50 nM with a flow rate of 5 μl/min. Human and cynomolgus CD3ε stalk-Fc(knob)-Avi/CD3δ-stalk-Fc(hole) were passed at a concentration of 0.061-250 nM with a flow rate of 30 μl/min through the flow cells for 300 s. The dissociation was monitored for 800 s.

For experiment [7], the target named is T2, Cynomolgus CD3ε stalk-Fc(knob)-Avi/CD3δ stalk-Fc(hole) (cynomolgus).
T2 construct: Heterodimeric Fc fusion; also called cynomolgus CD3ε/δ
T2 sequence (chain, as listed by the source mutant limits assumed, chain 1 of 2): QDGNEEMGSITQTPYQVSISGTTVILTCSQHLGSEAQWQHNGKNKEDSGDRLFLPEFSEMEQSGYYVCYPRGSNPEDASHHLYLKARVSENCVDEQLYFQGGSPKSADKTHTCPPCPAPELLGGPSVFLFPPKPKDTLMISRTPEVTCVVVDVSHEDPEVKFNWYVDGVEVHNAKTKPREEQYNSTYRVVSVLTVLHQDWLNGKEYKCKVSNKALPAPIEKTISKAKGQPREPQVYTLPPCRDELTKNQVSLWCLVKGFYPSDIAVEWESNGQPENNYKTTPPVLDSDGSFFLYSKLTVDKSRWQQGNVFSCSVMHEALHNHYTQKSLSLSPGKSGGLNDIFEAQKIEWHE
T2 sequence (chain, as listed by the source mutant limits assumed, chain 2 of 2): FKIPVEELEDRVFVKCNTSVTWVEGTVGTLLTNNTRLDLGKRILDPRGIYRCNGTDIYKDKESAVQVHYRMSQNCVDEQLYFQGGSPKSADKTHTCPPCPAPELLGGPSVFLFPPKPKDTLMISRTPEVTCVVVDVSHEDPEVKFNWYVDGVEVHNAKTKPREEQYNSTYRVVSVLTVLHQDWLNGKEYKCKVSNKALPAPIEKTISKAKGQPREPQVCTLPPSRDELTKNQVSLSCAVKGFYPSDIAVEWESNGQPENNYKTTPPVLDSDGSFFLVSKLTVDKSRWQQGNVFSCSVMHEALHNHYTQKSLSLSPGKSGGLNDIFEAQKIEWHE
The description is as above. The procedure: as §1, §4

Experiment [8] addresses T1, Human CD3ε stalk-Fc(knob)-Avi/CD3δ …. Briefly: SPR, Biacore T200, 25 °C; monovalent IgG captured by anti-PG antibody on C1 chip, CD3ε/δ-Fc as analyte; 1:1 Langmuir fit; triplicates; footnote: values may not be fully reliable, bad fit quality. On the procedure: as §1, §4
Experiment [9] concerns the target T2, Cynomolgus CD3ε stalk-Fc(knob)-Avi/CD3δ …. The experiment is described as above. The procedure: as §1, §4

B1: TYRP1 TCB containing optimized anti-CD3 antibody clone P033.078 (bispecific antibody, human IgG1, kappa, L234A L235A)
heavy 1: not shown
heavy 2: QVQLVQSGAEVKKPGASVKVSCKASGFNIKDYFLHWVRQAPGQGLEWMGWINPDNGNTVYAQKFQGRVTMTADTSTSTVYMELSSLRSEDTAVYYCTRRDYTYEKAALDYWGQGTLVTVSSASTKGPSVFPLAPSSKSTSGGTAALGCLVEDYFPEPVTVSWNSGALTSGVHTFPAVLQSSGLYSLSSVVTVPSSSLGTQTYICNVNHKPSNTKVDEKVEPKSCDKTHTCPPCPAPEAAGGPSVFLFPPKPKDTLMISRTPEVTCVVVDVSHEDPEVKFNWYVDGVEVHNAKTKPREEQYNSTYRVVSVLTVLHQDWLNGKEYKCKVSNKALGAPIEKTISKAKGQPREPQVCTLPPSRDELTKNQVSLSCAVKGFYPSDIAVEWESNGQPENNYKTTPPVLDSDGSFFLVSKLTVDKSRWQQGNVFSCSVMHEALHNHYTQKSLSLSP
light 1: DIQMTQSPSSLSASVGDRVTITCRASGNIYNYLAWYQQKPGKVPKLLIYDAKTLADGVPSRFSGSGSGTDFTLTISSLQPEDVATYYCQHFWSLPFTFGQGTKLEIKRTVAAPSVFIFPPSDRKLKSGTASVVCLLNNFYPREAKVQWKVDNALQSGNSQESVTEQDSKDSTYSLSSTLTLSKADYEKHKVYACEVTHQGLSSPVTKSFNRGEC
light 2: EVQLLESGGGLVQPGGSLRLSCAASGFTFESYAMNWVRQAPGKGLEWVSRIRSKYNEYATYYADSVKGRFTISRDDSKNTLYLQMNSLRAEDTAVYYCVRASNFPSSFVSYFGYWGQGTLVTVSSASVAAPSVFIFPPSDEQLKSGTASVVCLLNNFYPREAKVQWKVDNALQSGNSQESVTEQDSKDSTYSLSSTLTLSKADYEKHKVYACEVTHQGLSSPVTKSFNRGEC
notes: 2+1 IgG CrossFab, inverted, with charge modifications; knob-into-hole, P329G L234A L235A; also called CD3opt (P033.078); P033.078 in TCB format
As to B1, in [1], the “fold of binding half-life over CD3orig” value is no more than 6 fold. Besides, the “binding activity [%]” value in experiment [2] and in experiment [3] was 99% each time.

B2: Anti-CD3 antibody clone P004.042 in monovalent human IgG1 format (antibody, V domains shown)
VH: EVQLLESGGGLVQPGGSLRLSCAASGFQFDNYAMNWVRQAPGKGLEWVSRIRTKYNEYATYYADSVKGRFTISRDDSKNTLYLQMNSLRAEDTAVYYCVRASNFPQSYVSYFGYWGQGTLVTVSS
VL: QAVVTQEPSLTVSPGGTVTLTCGSSTGAVTTSNYANWVQEKPGQAFRGLIGGTNKRAPGTPARFSGSLLGGKAALTLSGAQPEDEAEYYCALWYSNLWVFGGGTKLTVL
notes: Monovalent human IgG1 with crossed VH and VL domains; knob-into-hole; P329G L234A L235A; also called P004.042 (monovalent IgG)
As for B2, the “binding activity [%]” value was 101% in experiment [4] and 98% in experiment [5]. In addition, the t1/2 in experiment [6] is 1.36 min; in experiment [7] it was 1.43 min. Further, the Kd in experiment [8] worked out at 1.36 nM; in experiment [9], 0.439 nM. Also, the koff in experiment [8] is 0.00852 s⁻¹; in [9], 0.00809 s⁻¹. For the same molecule, the kon in [8] was 6.28e+06 M⁻¹ s⁻¹; in [9] it was 1.85e+07 M⁻¹ s⁻¹.

By Kd is commonly meant the equilibrium constant for the complex coming apart. A lower Kd goes with tighter binding. One may read the koff as a measure of how fast the partners let go of each other. In general, kon refers to the rate constant with which the complex forms.
